Results as given in article PMC8786824 (Scientific Reports, 2022).

Target: MERS-CoV RBD (amino acids 367 to 588) of the spike glycoprotein (MERS-CoV, UniProt K9N5Q8)
Test: crystal structure
Conditions: both partners purified

MERS-CoV RBD (amino acids 367 to 588) of the spike glycoprotein, sequence (K9N5Q8 367-588): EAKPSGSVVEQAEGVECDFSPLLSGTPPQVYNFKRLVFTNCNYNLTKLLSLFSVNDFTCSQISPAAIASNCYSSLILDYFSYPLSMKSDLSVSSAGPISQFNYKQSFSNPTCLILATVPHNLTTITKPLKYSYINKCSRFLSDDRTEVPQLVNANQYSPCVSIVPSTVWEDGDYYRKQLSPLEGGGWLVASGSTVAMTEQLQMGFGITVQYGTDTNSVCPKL

B1: KNIH90-F1 antigen-binding fragment (Fab) (Fab, V domains shown)
VH: QVQLVQSGAEVKRPGSSVKVSCKTSGGTFNNNAINWVRQAPGQGLEWMGGIIPFFGIAKYAQKFQGRVTITADESTSTAYMELSSLRSEDTAVYYCARDLPRESSYGSGSYYTHYYAMDVWGQGTTVTVSS
VL: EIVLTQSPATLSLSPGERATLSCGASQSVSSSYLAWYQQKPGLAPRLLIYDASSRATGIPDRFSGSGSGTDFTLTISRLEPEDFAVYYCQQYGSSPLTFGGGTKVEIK
notes: also called KNIH90-F1 Fab; nAb KNIH90-F1
binding result: binds
